Assay results from US20230303698A1 (published 2023).
Where two headings read alike, the source gives them in different places. Each block holds one binder with its values, some of them ahead of it.

Tests used:
[1] = target: T1, human PSMA (human, UniProt Q04609 1-750); assay: FACS binding to LNCaP cells
[2] = target: T1, human PSMA; assay: FACS binding to LNCaP cells; remark: listed apart in the source
[3] = target: T2, cynomolgus monkey OX40-His protein (cynomolgus monkey); assay: ELISA
T2 chain: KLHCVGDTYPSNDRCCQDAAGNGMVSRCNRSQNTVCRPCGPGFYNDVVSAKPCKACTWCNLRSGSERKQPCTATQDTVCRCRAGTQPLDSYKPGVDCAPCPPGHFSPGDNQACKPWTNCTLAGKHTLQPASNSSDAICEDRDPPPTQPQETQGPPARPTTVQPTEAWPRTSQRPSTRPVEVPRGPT

[4] = target: T3, human OX40 (human, UniProt P43489 29-277); assay: FACS
T3 chain: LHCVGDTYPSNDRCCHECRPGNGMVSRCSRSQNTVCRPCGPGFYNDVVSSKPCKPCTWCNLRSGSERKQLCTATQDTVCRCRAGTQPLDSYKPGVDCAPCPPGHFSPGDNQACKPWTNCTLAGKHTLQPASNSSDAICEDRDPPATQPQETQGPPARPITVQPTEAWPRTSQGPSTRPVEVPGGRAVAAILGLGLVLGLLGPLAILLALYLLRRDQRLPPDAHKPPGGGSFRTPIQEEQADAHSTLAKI

[5] = target: T4, human 4-1BB (human, UniProt Q07011 24-255); assay: FACS
[6] = target: T4, human 4-1BB; assay: FACS; remark: listed apart in the source
[7] = target: T5, cynomolgus monkey 4-1BB (cynomolgus monkey); assay: FACS
T5 chain: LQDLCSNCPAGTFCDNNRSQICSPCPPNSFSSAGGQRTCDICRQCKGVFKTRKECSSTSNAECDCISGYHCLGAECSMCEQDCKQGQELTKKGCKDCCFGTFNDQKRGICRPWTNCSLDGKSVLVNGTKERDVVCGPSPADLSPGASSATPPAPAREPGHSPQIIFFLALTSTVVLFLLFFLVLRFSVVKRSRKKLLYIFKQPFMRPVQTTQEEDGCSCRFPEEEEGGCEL

[8] = target: T4, human 4-1BB; assay: FACS; remark: listed apart in the source
[9] = target: human CLDN18.2; assay: FACS binding to NUGC-4 cells
[10] = target: T6, human PD-L1 (human, UniProt Q9NZQ7 19-290); assay: FACS
T6 sequence (Q9NZQ7 19-290): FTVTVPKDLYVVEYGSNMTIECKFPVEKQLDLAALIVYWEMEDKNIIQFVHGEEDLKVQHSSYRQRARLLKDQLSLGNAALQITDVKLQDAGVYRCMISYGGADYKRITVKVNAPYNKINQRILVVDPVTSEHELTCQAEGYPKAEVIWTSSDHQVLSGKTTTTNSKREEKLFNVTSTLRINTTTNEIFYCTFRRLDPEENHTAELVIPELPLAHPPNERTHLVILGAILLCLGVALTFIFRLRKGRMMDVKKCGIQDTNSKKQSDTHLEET

[11] = target: T6, human PD-L1; assay: FACS binding to CHO-K1/hPD-L1 cells

T1 sequence (Q04609 whole entry): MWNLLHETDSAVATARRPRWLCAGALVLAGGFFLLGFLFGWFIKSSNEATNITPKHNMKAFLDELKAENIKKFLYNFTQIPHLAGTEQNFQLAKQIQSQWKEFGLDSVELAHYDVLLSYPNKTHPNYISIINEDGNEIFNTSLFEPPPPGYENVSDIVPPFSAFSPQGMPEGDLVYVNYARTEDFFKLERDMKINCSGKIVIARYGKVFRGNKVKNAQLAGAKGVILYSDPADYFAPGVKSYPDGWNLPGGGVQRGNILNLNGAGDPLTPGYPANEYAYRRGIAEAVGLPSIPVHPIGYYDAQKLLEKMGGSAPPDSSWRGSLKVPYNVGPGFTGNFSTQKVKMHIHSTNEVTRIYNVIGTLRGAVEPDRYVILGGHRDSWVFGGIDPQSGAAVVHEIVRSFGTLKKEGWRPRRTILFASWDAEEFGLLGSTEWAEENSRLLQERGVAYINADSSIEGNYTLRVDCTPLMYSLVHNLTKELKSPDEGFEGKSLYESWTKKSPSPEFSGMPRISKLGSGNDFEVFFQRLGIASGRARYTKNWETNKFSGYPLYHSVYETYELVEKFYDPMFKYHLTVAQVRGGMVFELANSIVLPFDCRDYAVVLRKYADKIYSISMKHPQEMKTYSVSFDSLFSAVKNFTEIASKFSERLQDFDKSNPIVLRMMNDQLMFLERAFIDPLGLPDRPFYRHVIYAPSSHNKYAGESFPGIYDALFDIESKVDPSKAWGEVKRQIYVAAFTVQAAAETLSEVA

- EC50 [1]: 0.702 nM
- EC50 [2]: 2.58 nM
B1: PR001331, anti-PSMA monoclonal antibody 2E8A1B1 hIgG1 (antibody, V domains shown)
VH: QVQLVESGGGVVQPGRSLRLSCSASGFTFINYGMNWVRQAPGKGLEWVAVIWYDGSNKYYADSVRGRFTISRDNSKNTLYLQMNSLRAEDTAVYYCARGPGYGGHSDAFDIWGQGTMVTVSS
VL: DIQMTQSPSSLSASIGDRVTITCRASQSINSYLNWYQQKPGKAPKLLIYTASSLLSGVPSRFSASGSWTDFSLTISSLQPEDFATYYCQQSFSTPYTFGQGTNLEIKR

- EC50 [5]: 0.951 nM
- EC50 [1]: 0.876 nM
B4: PR003557 (bispecific antibody)
light: DIQMTQSPSSLSASIGDRVTITCRASQSINSYLNWYQQKPGKAPKLLIYTASSLLSGVPSRFSASGSWTDFSLTISSLQPEDFATYYCQQSFSTPYTFGQGTNLEIKRTVAAPSVFIFPPSDEQLKSGTASVVCLLNNFYPREAKVQWKVDNALQSGNSQESVTEQDSKDSTYSLSSTLTLSKADYEKHKVYACEVTHQGLSSPVTKSFNRGEC
heavy: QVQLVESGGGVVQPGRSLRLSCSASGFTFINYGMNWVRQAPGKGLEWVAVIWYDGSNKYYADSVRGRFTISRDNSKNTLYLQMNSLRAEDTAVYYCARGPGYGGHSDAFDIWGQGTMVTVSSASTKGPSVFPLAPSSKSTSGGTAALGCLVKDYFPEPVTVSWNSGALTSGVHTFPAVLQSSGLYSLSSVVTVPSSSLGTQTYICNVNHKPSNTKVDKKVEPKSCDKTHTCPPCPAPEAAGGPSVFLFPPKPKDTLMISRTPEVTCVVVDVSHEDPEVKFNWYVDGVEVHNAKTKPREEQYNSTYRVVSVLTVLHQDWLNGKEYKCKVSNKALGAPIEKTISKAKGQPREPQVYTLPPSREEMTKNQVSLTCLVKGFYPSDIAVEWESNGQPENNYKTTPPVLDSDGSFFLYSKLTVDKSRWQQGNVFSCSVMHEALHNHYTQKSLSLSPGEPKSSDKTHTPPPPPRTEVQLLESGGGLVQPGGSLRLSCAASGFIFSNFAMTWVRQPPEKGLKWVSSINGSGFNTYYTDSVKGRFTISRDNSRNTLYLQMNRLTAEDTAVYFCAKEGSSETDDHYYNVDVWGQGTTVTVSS

- EC50 [5]: 0.476 nM
- EC50 [1]: 0.687 nM
B5: PR003556 (bispecific antibody)
light: B4 light
heavy: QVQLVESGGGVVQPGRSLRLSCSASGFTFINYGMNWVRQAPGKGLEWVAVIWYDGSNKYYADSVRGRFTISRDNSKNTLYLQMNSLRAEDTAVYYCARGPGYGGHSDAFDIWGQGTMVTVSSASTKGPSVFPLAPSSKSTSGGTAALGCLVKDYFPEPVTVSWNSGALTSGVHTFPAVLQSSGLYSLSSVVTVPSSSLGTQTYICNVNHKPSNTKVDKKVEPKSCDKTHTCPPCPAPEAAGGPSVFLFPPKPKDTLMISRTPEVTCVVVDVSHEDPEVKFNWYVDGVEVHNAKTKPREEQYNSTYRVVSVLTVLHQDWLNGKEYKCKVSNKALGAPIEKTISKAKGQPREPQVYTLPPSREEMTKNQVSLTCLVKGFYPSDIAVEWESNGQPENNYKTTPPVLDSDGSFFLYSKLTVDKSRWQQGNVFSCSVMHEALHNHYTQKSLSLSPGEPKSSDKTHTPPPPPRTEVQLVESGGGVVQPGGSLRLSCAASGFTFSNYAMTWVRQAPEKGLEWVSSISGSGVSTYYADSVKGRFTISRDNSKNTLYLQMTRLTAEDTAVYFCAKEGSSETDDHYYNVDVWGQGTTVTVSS

- EC50 [5]: 0.819 nM
- EC50 [1]: 0.802 nM
B7: PR003555 (bispecific antibody)
light: B4 light
heavy: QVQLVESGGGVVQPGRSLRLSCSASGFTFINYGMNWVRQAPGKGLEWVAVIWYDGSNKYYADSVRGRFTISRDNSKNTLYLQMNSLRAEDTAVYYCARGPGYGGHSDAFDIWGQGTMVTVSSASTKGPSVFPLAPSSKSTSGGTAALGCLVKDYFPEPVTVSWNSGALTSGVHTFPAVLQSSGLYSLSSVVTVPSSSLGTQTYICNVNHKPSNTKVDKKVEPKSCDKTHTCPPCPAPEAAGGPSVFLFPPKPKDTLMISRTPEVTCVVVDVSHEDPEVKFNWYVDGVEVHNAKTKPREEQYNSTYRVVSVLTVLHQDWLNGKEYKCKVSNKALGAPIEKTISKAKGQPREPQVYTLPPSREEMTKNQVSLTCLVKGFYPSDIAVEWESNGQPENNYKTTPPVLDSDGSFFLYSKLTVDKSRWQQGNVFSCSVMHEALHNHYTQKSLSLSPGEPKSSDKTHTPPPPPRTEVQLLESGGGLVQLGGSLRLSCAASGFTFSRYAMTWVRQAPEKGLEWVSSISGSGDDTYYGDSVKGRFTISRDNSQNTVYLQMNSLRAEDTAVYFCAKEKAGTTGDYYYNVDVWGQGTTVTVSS

- EC50 [6]: 3.76 nM
- EC50 [7]: 0.443 nM
- EC50 [8]: 3.76 nM
B8: PR001760, anti-4-1BB heavy-chain antibody 1016P0011G10 (antibody, V domains shown)
VH: EVQLVESGGGVVQPGGSLRLSCAASGFTFSNYAMTWVRQAPEKGLEWVSSISGSGVSTYYADSVKGRFTISRDNSKNTLYLQMTRLTAEDTAVYFCAKEGSSETDDHYYNVDVWGQGTTVTVSS

- EC50 [9]: 4.98 nM
B9: PR002726, anti-CLDN18.2 monoclonal antibody 13E6F4 hIgG1 (antibody, V domains shown)
VH: EVQLLESGGGLVQPGGSLRLSCAASGFTFSSFVMSWVRQAPGKGLEWVSTISGSGRSTYYADSVKGRFTISRDNSKNTLHLQMNSLRAEDTAVYYCAKDAAAAGTKFDYWGQGTLVTVSS
VL: EIVLTQSPATLSLSPGERATLSCRASQSVSSYLAWYQQKPGQAPRLLIYDASNRATGIPARFSGSGSGTDFTLTISSLEPEDFAVYYCQQRSNWPLTFGGGTKVEIKR

- EC50 [7]: 0.575 nM
B10: PR001758, anti-4-1BB heavy-chain antibody 1016P0010B11 (antibody, V domains shown)
VH: EVQLLESGGGLVQLGGSLRLSCAASGFTFSRYAMTWVRQAPEKGLEWVSSISGSGDDTYYGDSVKGRFTISRDNSQNTVYLQMNSLRAEDTAVYFCAKEKAGTTGDYYYNVDVWGQGTTVTVSS

- EC50 [7]: 0.485 nM
B13: Anti-4-1BB monoclonal antibody utomilumab analog (antibody, V domains shown)
VH: EVQLVQSGAEVKKPGESLRISCKGSGYSFSTYWISWVRQMPGKGLEWMGKIYPGDSYTNYSPSFQGQVTISADKSISTAYLQWSSLKASDTAMYYCARGYGIFDYWGQGTLVTVSS
VL: SYELTQPPSVSVSPGQTASITCSGDNIGDQYAHWYQQKPGQSPVLVIYQDKNRPSGIPERFSGSNSGNTATLTISGTQAMDEADYYCATYTGFGSLAVFGGGTKLTVLG

The next lines start with the binder.

B2: Anti-OX40 monoclonal antibody vonlerolizumab analog (antibody, V domains shown)
VH: EVQLVQSGAEVKKPGASVKVSCKASGYTFTDSYMSWVRQAPGQGLEWIGDMYPDNGDSSYNQKFRERVTITRDTSTSTAYLELSSLRSEDTAVYYCVLAPRWYFSVWGQGTLVTVSS
VL: DIQMTQSPSSLSASVGDRVTITCRASQDISNYLNWYQQKPGKAPKLLIYYTSRLRSGVPSRFSGSGSGTDFTLTISSLQPEDFATYYCQQGHTLPPTFGQGTKVEIKR
- EC50 [3]: 0.194 nM

B3: PR002067, anti-OX40 heavy-chain antibody R1026P079E12 (antibody, V domains shown)
VH: EVQLLESGGGLVQPGGSLRLSCAASGFTFSSYAMSWVRQAPGKGLEWVSAISGRGGSTFYADSVRGRFTISRDNSKNTLYLQMNSLRAEDTAMYYCVDGTTGTTDVDYWGQGTLVTVSS
- EC50 [4]: 17.8 nM
- EC50 [3]: 0.232 nM

B6: PR004284 (bispecific antibody)
light: B4 light
heavy: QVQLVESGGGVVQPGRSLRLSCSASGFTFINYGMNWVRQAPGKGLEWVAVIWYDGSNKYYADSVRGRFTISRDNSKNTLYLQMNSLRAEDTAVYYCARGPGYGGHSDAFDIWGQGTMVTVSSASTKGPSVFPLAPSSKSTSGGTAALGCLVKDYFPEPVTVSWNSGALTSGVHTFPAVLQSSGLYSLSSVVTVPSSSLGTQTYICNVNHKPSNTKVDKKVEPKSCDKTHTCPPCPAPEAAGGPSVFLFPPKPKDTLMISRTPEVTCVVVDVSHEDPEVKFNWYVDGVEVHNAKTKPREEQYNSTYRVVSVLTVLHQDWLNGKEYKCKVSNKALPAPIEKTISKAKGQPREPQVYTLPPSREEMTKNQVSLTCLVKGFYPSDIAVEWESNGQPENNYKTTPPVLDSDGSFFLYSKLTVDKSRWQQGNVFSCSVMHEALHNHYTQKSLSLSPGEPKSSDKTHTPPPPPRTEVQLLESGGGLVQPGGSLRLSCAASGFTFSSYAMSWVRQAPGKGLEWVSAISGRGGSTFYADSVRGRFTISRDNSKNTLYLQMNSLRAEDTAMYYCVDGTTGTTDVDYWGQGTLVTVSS
- EC50 [4]: 4.96 nM
- EC50 [2]: 6.7 nM

B11: PR003549 (bispecific antibody)
light: DIQMTQSPSTLSASVGDRVTVTCRASQSIYIWLAWYQQKPGKAPNLLIYKASSLETGVPSRFSGSGSGTEFTLTISSLQPDDFATYYCQQYYGSSRTFGQGTKVEIKRTVAAPSVFIFPPSDEQLKSGTASVVCLLNNFYPREAKVQWKVDNALQSGNSQESVTEQDSKDSTYSLSSTLTLSKADYEKHKVYACEVTHQGLSSPVTKSFNRGEC
heavy: EVQLVESGGGLVQPGGSLRLSCAASGFTFSSYWMSWVRQAPGKGLEWVANIKQEGSEKYYVDSVKGRFTISRDNAKNSLYLQMNSLRAEDTAVYYCARDRAVAGAFDIWGQGTMVTVSSASTKGPSVFPLAPSSKSTSGGTAALGCLVKDYFPEPVTVSWNSGALTSGVHTFPAVLQSSGLYSLSSVVTVPSSSLGTQTYICNVNHKPSNTKVDKKVEPKSCDKTHTCPPCPAPEAAGGPSVFLFPPKPKDTLMISRTPEVTCVVVDVSHEDPEVKFNWYVDGVEVHNAKTKPREEQYNSTYRVVSVLTVLHQDWLNGKEYKCKVSNKALGAPIEKTISKAKGQPREPQVYTLPPSREEMTKNQVSLTCLVKGFYPSDIAVEWESNGQPENNYKTTPPVLDSDGSFFLYSKLTVDKSRWQQGNVFSCSVMHEALHNHYTQKSLSLSPGEPKSSDKTHTPPPPPRTEVQLLESGGGLVQLGGSLRLSCAASGFTFSRYAMTWVRQAPEKGLEWVSSISGSGDDTYYGDSVKGRFTISRDNSQNTVYLQMNSLRAEDTAVYFCAKEKAGTTGDYYYNVDVWGQGTTVTVSS
- EC50 [10]: 1.56 nM
- EC50 [6]: 1.9 nM

B12: PR003789 (bispecific antibody)
light: B11 light
heavy: EVQLVESGGGLVQPGGSLRLSCAASGFTFSSYWMSWVRQAPGKGLEWVANIKQEGSEKYYVDSVKGRFTISRDNAKNSLYLQMNSLRAEDTAVYYCARDRAVAGAFDIWGQGTMVTVSSASTKGPSVFPLAPSSKSTSGGTAALGCLVKDYFPEPVTVSWNSGALTSGVHTFPAVLQSSGLYSLSSVVTVPSSSLGTQTYICNVNHKPSNTKVDKKVEPKSCDKTHTCPPCPAPEAAGGPSVFLFPPKPKDTLMISRTPEVTCVVVDVSHEDPEVKFNWYVDGVEVHNAKTKPREEQYNSTYRVVSVLTVLHQDWLNGKEYKCKVSNKALGAPIEKTISKAKGQPREPQVYTLPPSREEMTKNQVSLTCLVKGFYPSDIAVEWESNGQPENNYKTTPPVLDSDGSFFLYSKLTVDKSRWQQGNVFSCSVMHEALHNHYTQKSLSLSPGAEPKSSDKTHTPPPPPEVQLLESGGGLVQPGGSLRLSCAASGFTFSSYAMSWVRQAPGKGLEWVSAISGRGGSTFYADSVRGRFTISRDNSKNTLYLQMNSLRAEDTAMYYCVDGTTGTTDVDYWGQGTLVTVSS
- EC50 [4]: 3.98 nM
- EC50 [11]: 1.37 nM
